Experimental data taken from article PMC10902351.

Experiments:
[1] = target: Toxoplasma gondii actin (TgAct1), untagged (Toxoplasma gondii) (UniProt P53476)
[2] = target: Toxoplasma gondii actin (TgAct1), untagged (Toxoplasma gondii) (UniProt P53476); assay: epifluorescence microscopy of single filament growth (in vitro actin growth assay); actin growth assay with inclusion of 0.1 mM AMPPNP, compared to MgATP conditions

Toxoplasma gondii actin (TgAct1), untagged (from UniProt P53476 1-376) (natural protein)
phosphate (Pi) release after inducing polymerization of 12 µM TgAct1, MESG assay, 1-hour time course (phosphates per TgAct1 in 1 hour) [1]: 3 | fold change of the critical concentration with 0.1 mM AMPPNP against MgATP conditions [2]: 2 fold
